From paper PMC4242082, “Mechanistic determinants of the directionality and energetics of active export by a heterodimeric ABC transporter” (Nature Communications, 2014)
Ends that are not written are not given here.

Columns and labels:
P36370 [1] = test: AUC; sedimentation velocity, with ATP; 33 μM protein, 40,000 r.p.m., 10 °C, 14 h; 20 mM Tris pH 8.0, 50 mM NaCl, 5 mM MgCl2; c(S) model (Sedfit)
[2] = molecular target: the molecule itself; test: AUC; sedimentation equilibrium, with ADP; 12,000, 15,000 and 22,000 r.p.m., 10 °C; 3, 11 and 33 μM protein; 20 mM Tris pH 8.0, 50 mM NaCl, 5 mM MgCl2; monomer-dimer self-association model (SedPhat); dimer to monomers
P36370 [3] = test: AUC; sedimentation velocity, with ADP; 33 μM protein, 40,000 r.p.m., 10 °C, 14 h; 20 mM Tris pH 8.0, 50 mM NaCl, 5 mM MgCl2; c(S) model (Sedfit)
[4] = molecular target: the molecule itself; test: AUC; sedimentation velocity, with ATP; 33 μM protein, 40,000 r.p.m., 10 °C, 14 h; 20 mM Tris pH 8.0, 50 mM NaCl, 5 mM MgCl2; c(S) model (Sedfit)
[5] = molecular target: the molecule itself; test: AUC; sedimentation equilibrium, with ATP; 12,000, 15,000 and 22,000 r.p.m., 10 °C; 3, 11 and 33 μM protein; 20 mM Tris pH 8.0, 50 mM NaCl, 5 mM MgCl2; monomer-dimer self-association model (SedPhat); dimer to monomers
[6] = substrate: Nc1ncnc2c1ncn2[C@@H]1O[C@H](COP(=O)(O)OP(=O)(O)OP(=O)(O)O)[C@@H](O)[C@H]1O; test: ATP-dependent transport of RRYC(FL488)KSTEL in proteoliposomes; assay type: biochemical, Homo sapiens; conditions: peptide 1 μM, Mg2+, pH 7.4, 37 °C
Excerpt: ATP-dependent transport of RRYC(FL488)KSTEL in proteoliposomes on TAP (TAP1/TAP2 complex; wt TAP) | the Michaelis–Menten kinetics for peptide transport by wt TAP and D674A/wt are equal

[7] = molecular target: D674A/wt TAP complex (human TAP1 D674A with wt TAP2) (human) (UniProt Q03519)
[8] = molecular target: wild-type TAP (human TAP1/TAP2 complex) (human) (UniProt Q03518)

Row | Binder | 2nd/1st ratio (dimer to monomer peaks) (P36370 [1]) | Kd [2] | 2nd/1st ratio (dimer to monomer peaks) (P36370 [3]) | stoichiometry N [4] | Kd [5] | Km [6] | EC50 of lumenal peptide accumulation in proteoliposomes after 1 h at different external peptide concentrations, given as Kd of a low-affinity lumenal peptide-binding site [7] | lumenal peptide concentration reached in proteoliposomes at high external peptide (for example 100 μM): trans-inhibition [7] | lumenal peptide concentration reached in proteoliposomes at high external peptide (for example 100 μM): trans-inhibition [8]
1 | rat TAP1-NBD Walker B mutant (D645N) (domain or fragment, Model system for NBD homodimerisation; also called Walker B D645N; hydrolysis-deficient Walker B mutant; source: E. coli BL21(DE3), purified (Ni-NTA, Superdex200)) SPLSGSLAPLNMKGLVKFQDVSFAYPNHPNVQVLQGLTFTLYPGKVTALVGPNGSGKSTVAALLQNLYQPTGGKVLLDGEPLVQYDHHYLHTQVAAVGQEPLLFGRSFRENIAYGLTRTPTMEEITAVAMESGAHDFISGFPQGYDTEVGETGNQLSGGQRQAVALARALIRKPRLLILDNATSALDAGNQLRVQRLLYESPEWASRTVLLITQQLSLAERAHHILFLKEGSVCEQGTHLQLMERGGCYRSMVEALAAPSD | 2.61 | 111 µM | 0.68 | 2 | 22.4 µM | – | – | – | –
2 | rat TAP1-NBD Walker B/D-loop double mutant (D645N/D651A) (domain or fragment, D651A of rat TAP1 is equivalent to D674A of human TAP1; also called Walker B D645N/D-loop D651A; rat TAP1 NBD D645N/D651A; source: E. coli BL21(DE3), purified (Ni-NTA, Superdex200)) SPLSGSLAPLNMKGLVKFQDVSFAYPNHPNVQVLQGLTFTLYPGKVTALVGPNGSGKSTVAALLQNLYQPTGGKVLLDGEPLVQYDHHYLHTQVAAVGQEPLLFGRSFRENIAYGLTRTPTMEEITAVAMESGAHDFISGFPQGYDTEVGETGNQLSGGQRQAVALARALIRKPRLLILDNATSALAAGNQLRVQRLLYESPEWASRTVLLITQQLSLAERAHHILFLKEGSVCEQGTHLQLMERGGCYRSMVEALAAPSD | 0.11 | 164 µM | 0.26 | – | 170 µM | – | – | – | –
3 | TAP (TAP1/TAP2 complex; wt TAP) (Homo sapiens) (protein, full-length heterodimer from Sf9 insect cells (baculovirus), purified and reconstituted in proteoliposomes, or in membranes) chain 1: MASSRCPAPRGCRCLPGASLAWLGTVLLLLADWVLLRTALPRIFSLLVPTALPLLRVWAVGLSRWAVLWLGACGVLRATVGSKSENAGAQGWLAALKPLAAALGLALPGLALFRELISWGAPGSADSTRLLHWGSHPTAFVVSYAAALPAAALWHKLGSLWVPGGQGGSGNPVRRLLGCLGSETRRLSLFLVLVVLSSLGEMAIPFFTGRLTDWILQDGSADTFTRNLTLMSILTIASAVLEFVGDGIYNNTMGHVHSHLQGEVFGAVLRQETEFFQQNQTGNIMSRVTEDTSTLSDSLSENLSLFLWYLVRGLCLLGIMLWGSVSLTMVTLITLPLLFLLPKKVGKWYQLLEVQVRESLAKSSQVAIEALSAMPTVRSFANEEGEAQKFREKLQEIKTLNQKEAVAYAVNSWTTSISGMLLKVGILYIGGQLVTSGAVSSGNLVTFVLYQMQFTQAVEVLLSIYPRVQKAVGSSEKIFEYLDRTPRCPPSGLLTPLHLEGLVQFQDVSFAYPNRPDVLVLQGLTFTLRPGEVTALVGPNGSGKSTVAALLQNLYQPTGGQLLLDGKPLPQYEHRYLHRQVAAVGQEPQVFGRSLQENIAYGLTQKPTMEEITAAAVKSGAHSFISGLPQGYDTEVDEAGSQLSGGQRQAVALARALIRKPCVLILDDATSALDANSQLQVEQLLYESPERYSRSVLLITQHLSLVEQADHILFLEGGAIREGGTHQQLMEKKGCYWAMVQAPADAPE chain 2: MRLPDLRPWTSLLLVDAALLWLLQGPLGTLLPQGLPGLWLEGTLRLGGLWGLLKLRGLLGFVGTLLLPLCLATPLTVSLRALVAGASRAPPARVASAPWSWLLVGYGAAGLSWSLWAVLSPPGAQEKEQDQVNNKVLMWRLLKLSRPDLPLLVAAFFFLVLAVLGETLIPHYSGRVIDILGGDFDPHAFASAIFFMCLFSFGSSLSAGCRGGCFTYTMSRINLRIREQLFSSLLRQDLGFFQETKTGELNSRLSSDTTLMSNWLPLNANVLLRSLVKVVGLYGFMLSISPRLTLLSLLHMPFTIAAEKVYNTRHQEVLREIQDAVARAGQVVREAVGGLQTVRSFGAEEHEVCRYKEALEQCRQLYWRRDLERALYLLVRRVLHLGVQMLMLSCGLQQMQDGELTQGSLLSFMIYQESVGSYVQTLVYIYGDMLSNVGAAEKVFSYMDRQPNLPSPGTLAPTTLQGVVKFQDVSFAYPNRPDRPVLKGLTFTLRPGEVTALVGPNGSGKSTVAALLQNLYQPTGGQVLLDEKPISQYEHCYLHSQVVSVGQEPVLFSGSVRNNIAYGLQSCEDDKVMAAAQAAHADDFIQEMEHGIYTDVGEKGSQLAAGQKQRLAIARALVRDPRVLILDEATSALDVQCEQALQDWNSRGDRTVLVIAHRLQTVQRAHQILVLQEGKLQKLAQL | – | – | – | – | – | 99 ± 24 µM | – | – | –
4 | RRYC(Atto633)KSTEL [Atto633-labelled peptide RRYC(AT633)KSTEL] | – | – | – | – | – | – | 10.7 µM | < 16 µM | < 16 µM
